{
  "source": "paper PMC3386213",
  "about": "(Molecular Biology of the Cell, 2012)",
  "target": "the molecule itself",
  "test": "cross-linking",
  "data": [
    {"protein": "HA-tagged KCTD6 N-terminal BTB domain (domain or fragment) MDNGDWGYMMTDPVTLNVGGHLYTTSLTTLTRYPDSMLGAMFGGDFPTARDPQGNYFIDRDGPLFRYVLNFLRTSELTLPLDFKEFDLLRKEADFYQIEPLIQCLNDPKPLYPMDTFEEVVELSSTRKLSKYSNPVAVIITQLTITT", "values": [
      {"measurement": "stoichiometry N", "value": 2}
    ]}
  ]
}
